For assay [1], the system named is GAL4 responsive reporter plasmid. Nature of the assay: Cotransfection of GAL4-HIF-1α fusion proteins with GAL4 responsive luciferase reporter. It counts as cell-based, simian. To be noted: for stimulation of GAL4 reporter activity by coexpressed CBP / stimulation of GAL4 reporter activity by coexpressed SRC-1: hypoxic conditions, vs hypoxia without exogenous coactivator; for GAL4 reporter transcriptional activity (in words): with or without CBP / SRC-1. The source says:
To analyze functional activities of HIF-1α independently of the endogenous DNA binding and dimerization domains and the Arnt partner, we next fused HIF-1α to the heterologous DNA binding domain of GAL4. Functional activity of the fusion protein was monitored in COS7 cells by a cotransfection assay using a reporter gene construct carrying five GAL4 DNA binding elements in front of thymidine kinase promoter and the luciferase gene. Six hours after transfection media was changed, and cells were either left uninduced or exposed to 1% oxygen for 30 h prior to harvest. In the presence of either empty expression vector or a vector expressing the minimal GAL4 DNA binding domain, reporter gene activity was unaltered by reduced oxygen levels. […] The GAL4 DNA binding domain is known to harbor an NLS motif capable of taking fusion proteins to the nucleus (Ma and Ptashne (1987) Cell 51, 113-119). We therefore used antibodies directed against the DNA binding domain of GAL4 to examine in both normoxic and hypoxic cells the intracellular localization of the GAL4-HIF-1α fusion protein by immunofluorescence.
Transcriptional activity of GFP and GAL4 fusion constructs was analyzed in a cotransfection assay where effector plasmids (0.2 μg/30-mm dish) together with a reporter gene (1.5 μg/30-mm dish) were introduced into COS7 or HeLa cells. The reporter plasmid encoded firefly luciferase gene under the control of thymidine kinase minimal promoter and either five or three copies of GAL4 or HIF-responsive elements, respectively.

For another assay, the target named is GST/Ref-1 (Homo sapiens, UniProt P27695). Nature of the assay: Pull-down of [35S]methionine-labeled GAL4/HIF proteins with GST/Ref-1. In kind it is binding. Conditions: presence or absence of diamide. The protocol: The precise mechanism by which Ref-1 activates HIF-1α is not known. […] To further investigate whether Ref-1 could interact with HIF-1α, we tried to trap the interaction by using a crosslinking reagent such as diamide, which oxidizes cysteine sulfhydryls to disulfides. A series of experiments was performed with GST-tagged purified Ref-1. [^35S]methionine-labeled in vitro translated GAL4/HIF 1-826 was incubated with GST/Ref-1 in the presence or absence of diamide.
Next, we tried a series of pull-down experiments with [^35S]methionine-labeled in vitro translated GAL4/HIF […] and GAL4/HIF 531-584. […] An interaction between GAL4/HIF […] and GST/Ref-1 was also detected, and this interaction was enhanced in the presence of diamide. In excellent agreement with this observation the C-TAD contains two cysteine residues. […] Immunoblot analysis verified that the input concentrations of GST/Ref-1 or GST alone were similar.

Chain of GST/Ref-1 (P27695 whole entry, species assumed, the tested form may be a part): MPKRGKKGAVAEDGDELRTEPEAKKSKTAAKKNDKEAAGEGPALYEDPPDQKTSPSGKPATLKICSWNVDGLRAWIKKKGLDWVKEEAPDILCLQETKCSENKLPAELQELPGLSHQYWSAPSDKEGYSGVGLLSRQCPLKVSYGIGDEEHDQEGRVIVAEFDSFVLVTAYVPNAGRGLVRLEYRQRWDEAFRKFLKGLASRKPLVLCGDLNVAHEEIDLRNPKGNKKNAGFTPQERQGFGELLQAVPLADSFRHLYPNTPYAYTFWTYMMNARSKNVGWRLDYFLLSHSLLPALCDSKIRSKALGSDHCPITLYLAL

B1: GAL4/HIF 531-584: GAL4 chimeric protein spanning the N-terminal transactivation domain of HIF-1α (SEQ ID NO: 13) (protein)
chain: MKLLSSIEQACDICRLKKLKCSKEKPKCAKCLKNNWECRYSPKTKRSPLTRAHLTEVESRLERLEQLFLLIFPREDLDMILKMDSLQDIKALLTGLFVQDNVNKDAVTDRLASVETDMPLTLRQHRISATSSSEESSNKGQRQLTVSFKLELVEKLFAEDTEAKNPFSTQDTDLDLEMLAPYIPMDDDFQLRSFDQLSPLE
For the molecule B1, the “stimulation of hypoxia-dependent activation response by p300ΔHAT” value in assay [1] (absence of SRC-1, hypoxia) is on record as 2 fold. Further, in assay [1], the “stimulation of GAL4 reporter activity by coexpressed CBP” value turned out to be 11 fold and the “stimulation of GAL4 reporter activity by coexpressed SRC-1” value is recorded as 1.5 fold. In addition, the “binding to GST/Ref-1 (in words)” value with GST/Ref-1 is “bound GST/Ref-1”.

B2: GAL4/HIF 776-813: GAL4 fusion of C-terminal transactivation domain lacking 13 most carboxy-terminal amino acids (SEQ ID NO: 15) (protein)
chain: MKLLSSIEQACDICRLKKLKCSKEKPKCAKCLKNNWECRYSPKTKRSPLTRAHLTEVESRLERLEQLFLLIFPREDLDMILKMDSLQDIKALLTGLFVQDNVNKDAVTDRLASVETDMPLTLRQHRISATSSSEESSNKGQRQLTVSSDLACRLLGQSMDESGLPQLTSYDCEVNAPIQGSRNLL
As for B2, in assay [1] (Ref-1, CBP and SRC-1), the “regulation by Ref-1 and the coactivators (in words)” value is “showed no regulation by Ref-1 and the coactivators”. Moreover, the “GAL4 reporter transcriptional activity (in words)” value in assay [1] is “completely abrogated”.

B3: GAL4/HIF 526-641: GAL4 fusion with N-terminal transactivation domain and proposed inhibitory sequence (protein)
chain: MKLLSSIEQACDICRLKKLKCSKEKPKCAKCLKNNWECRYSPKTKRSPLTRAHLTEVESRLERLEQLFLLIFPREDLDMILKMDSLQDIKALLTGLFVQDNVNKDAVTDRLASVETDMPLTLRQHRISATSSSEESSNKGQRQLTVSDMVNEFKLELVEKLFAEDTEAKNPFSTQDTDLDLEMLAPYIPMDDDFQLRSFDQLSPLESSSASPESASPQSTVTVFQQTQIQEPTANATTTTATTDELKTVTKDRMEDIKILIAS
As for B3, the “GAL4 reporter transcriptional activity (in words)” value in assay [1] is “complete abrogation of the effect of CBP and SRC-1”.

B4: GAL4/HIF 776-826: GAL4 fusion containing the carboxy-terminal transactivation domain of HIF-1α (SEQ ID NO: 14) (protein)
chain: MKLLSSIEQACDICRLKKLKCSKEKPKCAKCLKNNWECRYSPKTKRSPLTRAHLTEVESRLERLEQLFLLIFPREDLDMILKMDSLQDIKALLTGLFVQDNVNKDAVTDRLASVETDMPLTLRQHRISATSSSEESSNKGQRQLTVSSDLACRLLGQSMDESGLPQLTSYDCEVNAPIQGSRNLLQGEELLRALDQVN
With B4, the “hypoxia-dependent activation of GAL4 reporter gene activity” value in assay [1] (1% O2 vs normoxia, no exogenous coactivator) was “about 2 fold”. Besides, in assay [1], the “stimulation of GAL4 reporter activity by coexpressed CBP” value was 29 fold and the “stimulation of GAL4 reporter activity by coexpressed SRC-1” value is on record as 17 fold. The “binding to GST/Ref-1 (in words)” value with GST/Ref-1 is recorded as “detected”.

The values are drawn from US6436654B1, “Methods for identifying compounds that modulate HIF-1α” (Pharmacia & Upjohn AB, priority 1998, dated 2002).
